# Experimental data reported in PMC6624275.
# Molecular target: Hen egg-white lysozyme (Hewl) (hen) (UniProt P00698)
# Sequence (P00698 19-147): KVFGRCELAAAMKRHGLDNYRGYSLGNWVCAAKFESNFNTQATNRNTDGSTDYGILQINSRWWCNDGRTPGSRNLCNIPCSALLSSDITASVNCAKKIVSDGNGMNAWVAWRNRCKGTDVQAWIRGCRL
Substance,"reduction of Hewl (10 U/well)-mediated lysis of M. lysodeikticus cells (OD at 595 nm, 25 °C), rDn-ACP 3-90 pmol/well, read at 2 h and 24 h [%]","reduction of Hewl (10 U/well)-mediated lysis of M. lysodeikticus cells (OD at 595 nm, 25 °C), rNm-ACP 6-180 pmol/well, read at 2 h and 24 h [%]"
recombinant Dichelobacter nodosus Adhesin Complex Protein (rDn-ACP) (from UniProt A5EV15 1-230) (natural protein),100,–
recombinant Neisseria meningitidis Adhesin Complex Protein (rNm-ACP) (natural protein),–,80
